Reference: US20120121576A1 (ACCELERON PHARMA, published 2012)

Tests used:
[1] = target: T1, monomeric ActRIIA tagged with histidine (ActRIIA-His) (human, UniProt P27037 20-135); test: SPR (BIACORE)
T1 construct: also called monomeric extracellular domain of ActRIIA tagged with histidine

[2] = target: ActRIIA expressed by A204 human rhabdomyosarcoma cells (human, UniProt P27037 20-513); test: cell-based or functional assay
[3] = target: T2, ActRIIA-Fc (ActRIIA-mFc, dimeric protein) (human, UniProt P27037 20-135); test: SPR (BIACORE); Ab-14E1 captured by immobilized anti-mFc IgG, ActRIIA-Fc as analyte
Excerpt: (§1) FIG. 9 depicts the kinetics of ActRIIA-Fc binding to Ab-14E1 as determined by BIACORE™-based analysis. A. Ab-14E1 was captured on a chip with covalently immobilized anti-mFC IgG and then exposed to ActRIIA-Fc at different concentrations. […] RU, relative units.

[4] = target: T2, ActRIIA-Fc (ActRIIA-mFc, dimeric …); test: SPR (BIACORE): Ab-14E1 captured on a CM5 chip by immobilized anti-mFc IgG, ActRIIA-mFc injected at different concentrations, nonlinear regression
Excerpt: as §1

T2 sequence (P27037 20-135 limits assumed): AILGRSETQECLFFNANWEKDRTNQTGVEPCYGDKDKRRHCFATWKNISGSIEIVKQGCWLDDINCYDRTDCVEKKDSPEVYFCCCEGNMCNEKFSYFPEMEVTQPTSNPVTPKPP
ActRIIA expressed by A204 human rhabdomyosarcoma cells, sequence (P27037 20-513 limits assumed): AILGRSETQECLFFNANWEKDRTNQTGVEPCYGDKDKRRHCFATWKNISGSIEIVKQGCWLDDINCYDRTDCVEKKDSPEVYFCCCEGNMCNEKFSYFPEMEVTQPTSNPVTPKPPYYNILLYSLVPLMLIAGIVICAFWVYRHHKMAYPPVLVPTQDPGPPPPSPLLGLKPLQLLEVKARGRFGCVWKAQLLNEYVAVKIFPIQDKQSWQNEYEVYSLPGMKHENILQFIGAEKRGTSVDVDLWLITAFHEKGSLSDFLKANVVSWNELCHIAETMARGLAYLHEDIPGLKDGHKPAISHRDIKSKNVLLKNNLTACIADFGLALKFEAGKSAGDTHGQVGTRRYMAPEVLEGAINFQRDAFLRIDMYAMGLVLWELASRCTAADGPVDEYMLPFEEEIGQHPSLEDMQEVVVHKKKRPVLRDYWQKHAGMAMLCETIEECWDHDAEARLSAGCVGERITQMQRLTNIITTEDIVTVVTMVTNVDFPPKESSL
T1 sequence (P27037 other isoform, or with tags, fused parts or gaps limits assumed): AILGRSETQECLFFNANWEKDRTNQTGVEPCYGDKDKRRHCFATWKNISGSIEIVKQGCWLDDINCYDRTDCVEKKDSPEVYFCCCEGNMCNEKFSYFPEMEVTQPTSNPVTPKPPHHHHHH

B1: Ab-14E1 (antibody 14E1; hybridoma subclone 14E1.H8.H1) (antibody, V domains shown)
VH: DVQLQESGPGLVKPSQSLSLTCSVTGYSITSGYYWNWIRQFPGNKLEWMGYISYDGSNNYNPSLINRISITRDTSKNQFFLKLNSVTTEDTATYFCASYAYRNDVRFAYWGQGTLVTVSA
VL: DIQMTQTTSSLSASLGDRVTISCRASQDISNFLNWYQQKPDGTVKLLIYFTSRLHSGVPSRFSGSGSGTDYSLTITNLEQEDIATYFCQQGNTLPWTFGGGTKLEIK
[1]
  fold lower affinity than for ActRIIA-mFc: 10 fold
[2]
  IC50 of inhibition of activin A-stimulated reporter gene expression (pGL3(CAGA)12 luciferase) in A204 cells: 57.1 ng/ml
[3]
  Kd: ~12 pM
  koff: ~1e-06 s⁻¹
[4]
  kon: 86000 M⁻¹ s⁻¹
